Measured values as given in the supplement of paper PMC12764529.
± gives the half width of the 95% confidence interval.

What was measured:
[1] = folding stability dG unfold (combined trypsin and chymotrypsin); higher = more stable
In short: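 Unfolding free energy was derived, per protease or combined, against a sequence-predicted unfolded-state K50 and a shared folded-state K50, starting from K50 inferred by Bayesian fitting of sequencing counts. Digestion with trypsin and chymotrypsin was carried out on designed mini-proteins under 80 residues without cysteine in a PA-tagged cDNA display construct. Only designs with AlphaFold2 dimer inter-PAE above 15 were kept.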

[2] = folding stability dG unfold from chymotrypsin proteolysis; higher = more stable
Method: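 Folding stability of de novo designed mini-proteins (<80 aa, no Cys; designed by TrROS, TrMRF, ProteinMPNN and the joint model) was measured by cDNA display proteolysis with trypsin and chymotrypsin. Each protease was used at 11 concentrations in a threefold dilution series plus a no-protease condition. K50 was inferred by Bayesian fitting of sequencing counts, and dG unfold was derived against a sequence-predicted unfolded-state K50 (Tsuboyama et al. method). Sequences shown include variable-length N-terminal GS-type padding (SAGGSAGG...) inside a display construct carrying a PA tag. Rows were kept only if the AF2 dimer inter-PAE was >15, to exclude likely homo-oligomers.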

| Sequence | folding stability dG unfold [1] [kcal/mol] | folding stability dG unfold [2] [kcal/mol] |
| --- | --- | --- |
| SAGGSAGGSAGDPNYVQVTIRMPMERRNPEDGKWERNPMEITIPFKSKDQADKIAEEIGISAGGSAGGSAGG [r11_984_TrROS] | -0.375 ± 0.23 | -0.0109 ± 0.18 |
| SAGGSAGGSAGEAAIEAAIAANSPDKDATVALPGGETVRLKFTRDPKVPTLLSLDVEREPPRSAGGSAGGSA [r18_202_JUSTAS] | < -1 | -0.61 ± 0.29 |
| SAGGSAGGSAGEIVIDVEPNMTVEEVKKRIKALAEELKKEKGLEIKKIEIKEGMSVEELLSAGGSAGGSAGG [r17_43_TrROS_Hall] | -0.00172 ± 0.13 | 0.225 ± 0.077 |
| SAGGSAGGSAGEVLIVAPAALLKEAIGPGVEVLAVDDDVVVVRVPVPPVPLTDANGNPLPSAGGSAGGSAGG [r11_828_TrMRF] | -0.15 ± 0.3 | 0.598 ± 0.047 |
| SAGGSAGGSAGGAKPVTFTFPDGTKAVSVEETPTSVVLYDPGPGALYVLDKETKTITPASAGGSAGGSAGGS [r10_289_TrMRF] | -0.72 ± 0.34 | -0.512 ± 0.29 |
| SAGGSAGGSAGGDPIRVDDIEPNPDRLEIDIRNFGNGNQKKHTIPPGSPPKIKPGDYIRSAGGSAGGSAGGS [r10_834_TrROS] | 0.229 ± 0.26 | 0.857 ± 0.12 |
| SAGGSAGGSAGGEARDNGVPTIEIPIPPEFKKGMPAEQMVDQLAKQLPPGVKDIHIEPPPSAGGSAGGSAGG [r7_487_TrROS] | 0.376 ± 0.13 | 0.744 ± 0.035 |
| SAGGSAGGSAGGEVITVKRPDGTPFDVTAVLSEDPVVPLLTVEATDDGPVVTLDVPASLLSAGGSAGGSAGG [r7_236_JUSTAS] | -0.172 ± 0.26 | 0.207 ± 0.16 |
| SAGGSAGGSAGGEVPADAVIEERLEVTDVSTGEKRRFRRTVTVEVDPDGSLRVRTEVEEESAGGSAGGSAGG [r7_19_JUSTAS] | -0.215 ± 0.3 | -0.184 ± 0.63 |
| SAGGSAGGSAGGGATVTETRTEFVPPTGIVRVESVVTYPDGSTRRTSSVVVVERPGAQPSAGGSAGGSAGGS [r10_290_JUSTAS] | 0.386 ± 0.13 | 0.872 ± 0.03 |
| SAGGSAGGSAGGGMKTKTTISTHPGPGGKTRVLVEVDPKKGLLTWRDPSDPSATTVVPLGSAGGSAGGSAGG [r7_992_JUSTAS] | -0.446 ± 0.41 | 0.511 ± 0.23 |
| SAGGSAGGSAGGGMPVPPVEVVEVSEEVRPLPPSSDKTVRRVTRTLPDGSTLTFEEPPESAGGSAGGSAGGS [r10_945_JUSTAS] | 0.064 ± 0.062 | 0.459 ± 0.04 |
| SAGGSAGGSAGGGPMIYTEETVEEVVKVGEKSIKRTVTTTKVEVPGKPGVVLETKVDWGGSAGGSAGGSAGG [r7_795_JUSTAS] | 0.312 ± 0.092 | 0.837 ± 0.024 |
| SAGGSAGGSAGGGSMDELPEIEEIAYVTDPATGAVTTVPASQVPEVLASTNNTVTIRPVSAGGSAGGSAGGS [r10_1121_JUSTAS] | < -1 | 0.363 ± 0.073 |
| SAGGSAGGSAGGKIEIDNIERFRPPNGNRYYKMTIRVEGNGKEREIWAPADDADNFKIESAGGSAGGSAGGS [r10_326_TrROS] | -0.474 ± 0.25 | -0.0266 ± 0.22 |
| SAGGSAGGSAGGKKININVPAEEMTEEEIKKLIKNLPPDMPIEIEIQPVPPPPPPPPGDKSAGGSAGGSAGG [r7_979_TrROS] | < -1 | -0.851 ± 0.63 |
| SAGGSAGGSAGGMIIVPVVTEETVDVTFRKTPEGVWEPVGPQTITTTTTLTIDPTKGRLSAGGSAGGSAGGS [r10_93_JUSTAS] | -0.443 ± 0.37 | 0.135 ± 0.43 |
| SAGGSAGGSAGGMKPGEVVLIYVERSYYDPEKGPLTPRNARYELLNYKPLPLKPKDPKVLSAGGSAGGSAGG [r7_522_JUSTAS] | -0.516 ± 0.16 | -0.3 ± 0.26 |
| SAGGSAGGSAGGMKPQPIKVTVERHFPDGTVELEELVFPSPEEVEKFLKENPDWTVVEVESAGGSAGGSAGG [r11_802_JUSTAS] | 3.4 ± 0.22 | 2.6 ± 0.081 |
| SAGGSAGGSAGGMPPVEIVEIVNSPGKNPVIVLDPATGEPRLIEVPPDVTLTPEMARRESAGGSAGGSAGGS [r10_844_JUSTAS] | 0.0501 ± 0.2 | 0.838 ± 0.066 |
